Values quoted from earlier work in article PMC8920573.

Target: SARS-CoV main protease main protease (Severe acute respiratory syndrome coronavirus) (UniProt P0C6X7)

Substance: SARS-CoV main protease main protease (from UniProt P0C6X7)
- Kd: 2.5 µM
